According to paper PMC1807977 (Nucleic Acids Research, 2007):

T1: CBP-tagged Tfb2 (purified yeast Tfb2 protein) (S. cerevisiae, UniProt Q02939 1-513)
T1 sequence (looked up): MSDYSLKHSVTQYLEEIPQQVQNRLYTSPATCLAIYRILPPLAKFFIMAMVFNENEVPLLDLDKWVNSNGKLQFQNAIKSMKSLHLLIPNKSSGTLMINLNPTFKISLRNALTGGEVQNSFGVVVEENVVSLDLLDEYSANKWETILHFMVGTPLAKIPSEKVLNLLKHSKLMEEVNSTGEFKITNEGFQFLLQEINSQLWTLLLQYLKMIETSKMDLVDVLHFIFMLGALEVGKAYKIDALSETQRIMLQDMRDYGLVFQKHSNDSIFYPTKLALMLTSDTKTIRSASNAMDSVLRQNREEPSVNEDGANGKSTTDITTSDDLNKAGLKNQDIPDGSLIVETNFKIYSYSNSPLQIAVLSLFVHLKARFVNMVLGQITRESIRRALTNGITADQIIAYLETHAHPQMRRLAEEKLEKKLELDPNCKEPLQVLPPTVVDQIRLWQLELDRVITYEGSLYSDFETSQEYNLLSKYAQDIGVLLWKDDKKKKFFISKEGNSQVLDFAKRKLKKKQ

T2: Tfb5 (Saccharomyces cerevisiae, UniProt Q3E7C1 1-72)
T2 sequence: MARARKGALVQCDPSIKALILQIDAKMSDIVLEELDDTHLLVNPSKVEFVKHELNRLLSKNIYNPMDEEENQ


Tests used:
[1] = target: T1, CBP-tagged Tfb2 (purified yeast Tfb2 …); test: co-IP
[2] = target: T2, Tfb5; test: EMSA
[3] = target: T1, CBP-tagged Tfb2 (purified yeast Tfb2 …); test: pull-down

binding result [3] | Binder | other results
– | His6-Tfb5 (purified yeast Tfb5 protein) (natural protein, S. cerevisiae, UniProt Q3E7C1 1-72, looked up) MARARKGALVQCDPSIKALILQIDAKMSDIVLEELDDTHLLVNPSKVEFVKHELNRLLSKNIYNPMDEEENQ | binding result [1]: binds
– | 79mer ss (ssDNA) DNA: GGAATTCCGGAATTACAGGCTCTAACACCGAATTACAGGCTCTAACACCGTCTCATCTTCGCTCGTCCACTTTTTTTCG | binding result [2]: no binding
binds | His6-Tfb5ΔC14 (domain or fragment, S. cerevisiae, UniProt Q3E7C1 1-58, looked up) MARARKGALVQCDPSIKALILQIDAKMSDIVLEELDDTHLLVNPSKVEFVKHELNRLL | –
binds | His6-Tfb5ΔN7 (domain or fragment, S. cerevisiae, UniProt Q3E7C1 8-72, looked up) ALVQCDPSIKALILQIDAKMSDIVLEELDDTHLLVNPSKVEFVKHELNRLLSKNIYNPMDEEENQ | –
